In article PMC8972253 one finds Kd data, which are given here for 1 substance.

The experiment concerns the target HER2 receptor (human (endogenous in SKBR3)) (UniProt P04626). Briefly: BLI. A general note: Biolayer interferometry detects binding as a change in optical thickness at a sensor tip.

What is called Kd is a measure of binding affinity in units of concentration. Low readings indicate a tighter complex, high ones a looser complex. Thiomab Tras-LC-V205C returned a dissociation constant Kd of 1 nM.
